Measured values published in US20190077860A1 (EISAI R AND D MANAGEMENT, published 2019).
Residue numbers refer to the chain shown, from its start.

B1: humanized antibody No. 159 (antibody, human IgG2)
heavy: QVQLVQSGSELKKPGASVKVSCKASGYTFTDYSMHWVRQAPGQGLKWMGWINTETGEPTYADDFKGRFVFSLDTSVSTAYLQISSLKAEDTAVYYCARIPLYYYGSRYWYFDVWGQGTTVTVSSASTKGPSVFPLAPSSRSTSESTAALGCLVKDYFPEPVTVSWNSGALTSGVHTFPAVLQSSGLYSLSSVVTVPSSNFGTQTYTCNVDHKPSNTKVDKTVERKSCVECPPCPAPPAAAPSVFLFPPKPKDTLMISRTPEVTCVVVDVSHEDPEVQFNWYVDGVEVHNAKTKPREEQFNSTFRVVSVLTVVHQDWLNGKEYKCKVSNKGLPAPIEKTISKTKGQPREPQVYTLPPSREEMTKNQVSLTCLVKGFYPSDIAVEWESNGQPENNYKTTPPMLDSDGSFFLYSKLTVDKSRWQQGNVFSCSVMHEALHNHYTQKSLSLSPG
light: DIQMTQSPSSLSASVGDRVTITCRASENIYRNLAWYQQKPGKAPQLLLYAATNLADGVPSRFSGSGSGTDYTLTISSLQPEDFATYYCQHFWGTPWTFGQGTKVEIKRTVAAPSVFIFPPSDEQLKSGTASVVCLLNNFYPREAKVQWKVDNALQSGNSQESVTEQDSKDSTYSLSSTLTLSKADYEKHKVYACEVTHQGLSSPVTKSFNRGEC
notes: human Ig kappa; also called L1-6/HK2
B2: humanized antibody No. 160 (antibody, human IgG2)
heavy: B1 heavy with V2I
light: B1 light
notes: human Ig kappa; also called L1-6/HK4
B3: humanized antibody No. 134 (antibody, human IgG2)
heavy: B1 heavy with D62Q, D63G, K65T
light: EIVMTQSPATLSVSPGERATLSCRASENIYRNLAWYQQKPGQSPRLLIYAATNLADGIPARFSGSGSGTEYTLTISSLQSEDFAVYYCQHFWGTPWTFGQGTKVEIKRTVAAPSVFIFPPSDEQLKSGTASVVCLLNNFYPREAKVQWKVDNALQSGNSQESVTEQDSKDSTYSLSSTLTLSKADYEKHKVYACEVTHQGLSSPVTKSFNRGEC
notes: human Ig kappa; also called L2-4/HA2
B4: humanized antibody No. 132 (antibody, human IgG2)
heavy: B1 heavy with V2I, D62Q, D63G, K65T
light: B3 light
notes: human Ig kappa; also called L2-4/HA4
B5: humanized antibody No. 133 (antibody, human IgG2)
heavy: B1 heavy with K46E, D62Q, D63G, K65T
light: B3 light
notes: human Ig kappa; also called L2-4/HA1
B6: humanized antibody No. 135 (antibody, human IgG2)
heavy: B1 heavy with K46E
light: B3 light
notes: human Ig kappa; also called L2-4/HK1
B7: humanized antibody No. 136 (antibody, human IgG2)
heavy: B1 heavy
light: B3 light
notes: human Ig kappa; also called L2-4/HK2

Columns and labels:
Test in all cases: ELISA
[1] = molecular target: T1, human EphB3 extracellular region-SEAP-His protein (human, UniProt P54753 34-559)
T1 construct: extracellular domain; also called hEphB3-SEAP-His
T1 sequence (looked up): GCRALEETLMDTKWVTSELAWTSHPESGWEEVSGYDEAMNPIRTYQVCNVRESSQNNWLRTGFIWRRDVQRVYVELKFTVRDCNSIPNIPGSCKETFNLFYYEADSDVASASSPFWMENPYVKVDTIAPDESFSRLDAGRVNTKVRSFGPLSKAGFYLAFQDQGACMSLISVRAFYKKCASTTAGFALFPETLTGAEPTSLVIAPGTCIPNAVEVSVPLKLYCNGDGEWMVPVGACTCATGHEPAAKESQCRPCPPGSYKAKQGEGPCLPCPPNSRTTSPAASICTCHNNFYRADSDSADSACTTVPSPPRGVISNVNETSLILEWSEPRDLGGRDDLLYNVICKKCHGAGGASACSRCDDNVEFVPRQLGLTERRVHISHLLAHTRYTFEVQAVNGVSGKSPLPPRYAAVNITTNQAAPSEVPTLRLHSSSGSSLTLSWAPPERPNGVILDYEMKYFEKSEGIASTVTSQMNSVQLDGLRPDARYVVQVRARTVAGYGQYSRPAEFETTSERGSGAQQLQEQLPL

[2] = molecular target: T2, human EphA2 extracellular region-SEAP-His protein (human, UniProt P29317 24-537)
T2 construct: extracellular domain; also called hEphA2-SEAP-His
T2 sequence (P29317 24-537): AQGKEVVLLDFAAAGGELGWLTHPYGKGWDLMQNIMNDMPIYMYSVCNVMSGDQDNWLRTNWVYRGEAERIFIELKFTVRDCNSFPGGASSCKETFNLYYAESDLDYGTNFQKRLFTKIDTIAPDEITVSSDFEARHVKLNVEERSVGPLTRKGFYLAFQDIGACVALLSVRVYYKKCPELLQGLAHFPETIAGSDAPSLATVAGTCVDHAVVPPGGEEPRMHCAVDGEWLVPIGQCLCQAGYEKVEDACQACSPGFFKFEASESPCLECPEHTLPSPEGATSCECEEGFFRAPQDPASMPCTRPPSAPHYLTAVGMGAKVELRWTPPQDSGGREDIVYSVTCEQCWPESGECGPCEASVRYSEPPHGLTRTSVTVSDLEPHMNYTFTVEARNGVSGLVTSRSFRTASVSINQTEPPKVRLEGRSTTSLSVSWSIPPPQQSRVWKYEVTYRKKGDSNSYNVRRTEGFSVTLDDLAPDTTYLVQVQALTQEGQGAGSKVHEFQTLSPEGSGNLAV

[3] = molecular target: T3, human EphB1 extracellular region-SEAP-His protein (human, UniProt P54762 18-540)
T3 construct: extracellular domain; also called hEphB1-SEAP-His
T3 sequence (looked up): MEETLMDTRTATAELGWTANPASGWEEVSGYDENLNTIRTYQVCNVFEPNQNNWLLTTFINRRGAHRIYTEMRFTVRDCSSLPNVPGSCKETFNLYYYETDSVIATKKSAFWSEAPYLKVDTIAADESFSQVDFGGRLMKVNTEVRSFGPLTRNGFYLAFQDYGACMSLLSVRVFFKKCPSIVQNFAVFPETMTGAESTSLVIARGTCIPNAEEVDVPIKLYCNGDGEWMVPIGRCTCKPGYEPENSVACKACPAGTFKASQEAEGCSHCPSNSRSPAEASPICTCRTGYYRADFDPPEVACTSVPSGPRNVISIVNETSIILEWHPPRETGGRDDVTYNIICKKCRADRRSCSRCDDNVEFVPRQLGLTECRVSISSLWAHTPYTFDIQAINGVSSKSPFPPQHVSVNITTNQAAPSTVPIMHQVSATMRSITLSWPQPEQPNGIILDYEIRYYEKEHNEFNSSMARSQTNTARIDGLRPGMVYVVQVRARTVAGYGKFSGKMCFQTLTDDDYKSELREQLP

[4] = molecular target: T4, human EphA4 extracellular region-SEAP-His protein (human, UniProt P54764 20-547)
T4 construct: also called hEphA4-SEAP-His
T4 sequence (P54764 20-547): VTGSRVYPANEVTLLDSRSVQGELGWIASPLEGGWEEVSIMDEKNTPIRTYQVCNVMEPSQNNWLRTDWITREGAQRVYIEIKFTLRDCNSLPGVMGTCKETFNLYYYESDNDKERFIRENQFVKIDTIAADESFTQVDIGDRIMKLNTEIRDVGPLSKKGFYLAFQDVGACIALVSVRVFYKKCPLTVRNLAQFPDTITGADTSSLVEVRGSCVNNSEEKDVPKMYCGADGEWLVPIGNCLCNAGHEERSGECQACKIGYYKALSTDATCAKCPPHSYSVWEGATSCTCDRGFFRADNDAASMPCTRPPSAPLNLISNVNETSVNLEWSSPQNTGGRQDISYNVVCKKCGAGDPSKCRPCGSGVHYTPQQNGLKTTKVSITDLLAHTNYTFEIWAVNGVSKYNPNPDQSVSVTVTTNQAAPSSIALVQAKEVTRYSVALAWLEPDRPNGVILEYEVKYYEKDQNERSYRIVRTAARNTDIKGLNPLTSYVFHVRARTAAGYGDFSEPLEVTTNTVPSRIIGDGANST

[5] = molecular target: T5, human EphA6 extracellular region-SEAP-His protein (human, UniProt Q9UF33 23-550)
T5 construct: extracellular domain; also called hEphA6-SEAP-His
T5 sequence (looked up): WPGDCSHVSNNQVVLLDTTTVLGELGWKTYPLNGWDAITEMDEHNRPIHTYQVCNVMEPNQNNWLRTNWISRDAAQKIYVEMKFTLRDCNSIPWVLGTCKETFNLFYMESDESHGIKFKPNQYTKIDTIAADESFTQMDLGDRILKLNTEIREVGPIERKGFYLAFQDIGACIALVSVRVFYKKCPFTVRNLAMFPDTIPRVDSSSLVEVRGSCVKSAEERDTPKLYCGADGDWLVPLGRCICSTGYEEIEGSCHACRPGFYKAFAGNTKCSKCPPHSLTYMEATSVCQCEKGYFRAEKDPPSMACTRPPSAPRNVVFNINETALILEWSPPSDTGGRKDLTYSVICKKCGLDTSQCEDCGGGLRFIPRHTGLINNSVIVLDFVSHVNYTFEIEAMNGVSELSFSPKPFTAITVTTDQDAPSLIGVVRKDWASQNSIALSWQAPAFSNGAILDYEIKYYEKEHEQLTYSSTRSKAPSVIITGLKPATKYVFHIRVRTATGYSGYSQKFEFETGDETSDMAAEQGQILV

[6] = molecular target: T6, human EphB4 extracellular region-SEAP-His protein (human, UniProt P54760 16-539)
T6 construct: extracellular domain; also called hEphB4-SEAP-His
T6 sequence (looked up): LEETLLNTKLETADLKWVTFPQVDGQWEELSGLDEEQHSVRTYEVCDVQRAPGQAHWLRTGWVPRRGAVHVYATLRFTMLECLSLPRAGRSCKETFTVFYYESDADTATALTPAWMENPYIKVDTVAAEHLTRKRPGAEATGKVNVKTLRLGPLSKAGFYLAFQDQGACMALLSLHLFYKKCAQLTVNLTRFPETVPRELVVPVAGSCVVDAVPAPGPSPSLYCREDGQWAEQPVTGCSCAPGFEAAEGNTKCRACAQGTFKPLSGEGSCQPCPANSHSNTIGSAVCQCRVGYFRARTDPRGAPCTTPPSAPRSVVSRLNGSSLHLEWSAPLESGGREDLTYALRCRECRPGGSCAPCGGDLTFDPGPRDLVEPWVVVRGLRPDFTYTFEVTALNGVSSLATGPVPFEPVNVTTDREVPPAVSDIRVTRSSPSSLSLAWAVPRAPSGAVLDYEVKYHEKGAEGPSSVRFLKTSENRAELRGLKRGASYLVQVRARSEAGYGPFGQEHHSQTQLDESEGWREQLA

Binder | A450 as % of hEphA4-SEAP-His [1] [%] | A450 as % of hEphA4-SEAP-His [2] [%] | A450 as % of hEphA4-SEAP-His [3] [%] | A450 as % of hEphA4-SEAP-His [4] [%] | A450 as % of hEphA4-SEAP-His [5] [%] | A450 as % of hEphA4-SEAP-His [6] [%]
B1 | 5.5 | 5.4 | 5.3 | 100 | 7.6 | 5.4
B2 | 6.2 | 6.1 | 6.1 | 100 | 8.7 | 6.3
B3 | 5.2 | 5 | 5.1 | 100 | 9.6 | 5.1
B4 | 4.7 | 4.8 | 4.8 | 100 | 9.7 | 4.8
B5 | 4.7 | 4.7 | 4.6 | 100 | 8.8 | 4.9
B6 | 5 | 5 | 5.1 | 100 | 7 | 5.1
B7 | 5.5 | 5.1 | 5.2 | 100 | 7.2 | 5.2
